Where no end group is shown, it is not given here. The star is where a group is joined. Biotin = O=C1N[C@H]2[C@H](CS[C@H]2CCCCC(=O)*)N1

The values that follow come from patent US20260232732A1 (FUNDACI INSTITUT DE RECERCA CONTRA LA LEUC MIA JOSEP …, published 2026).

Experiment [1] concerns the target T1, biotin-peptide TSSMEDYVNF (human).
T1 peptide: Biotin-TSSMEDYVNF
The experiment in a line: ELISA biotin-peptide; scFv 10 ug/mL; repI. How it is done:
(§1) The peptides were synthesized naked or with a N-terminal Biotin modification with a purity of >98%. All four scFvs were verified by ELISA that can be detected with anti-His antibodies. ELISA was performed for scFv-peptide binding validation. Briefly, naked peptides were coated (50 μg/mL) in 0.58M carbonate-bicarbonate buffer pH9.5, 100 μL/well, 4° C. O/N. Then after blocking (3% BSA-PBS, 300 μL/well 37° C. 1.5 h) and washing (PBS+Tween-20 0.05% v/v (0.05% PBST), wells were incubated with each purified scFv antibody at concentration of 1 μg/mL in PBS at 37° C. 1 h. After washing (0.05% PBST), wells were incubated with secondary antibodies (goat anti-His IgG-HRP) in PBS, 37° C., 30 min. After washing, and incubation with TMB substrate, reactions were stopped with 2M HCl and reading was quantified at OD450.
(§2) ELISA with biotin-conjugated peptides (5 μg/mL) was performed very similar to described above with minor modifications.
(§3) A full curve ELISA was performed for each positive scFv/biotin-peptide pair in order to confirm previous results. Tables 15-17 show ELISA results of the dose-dependent full curve for each positive peptide with scFv “CCR9_HUM”, “Comp-2” and “Comp-3”, respectively.
Background: In an ELISA, binding on a coated surface is turned into a signal by an enzyme label.

Experiment [2] deals with T2, biotin-peptide SSMEDYVNFN (human).
T2 peptide: Biotin-SSMEDYVNFN
In words: ELISA biotin-peptide; scFv 10 ug/mL; repI. As to the method: as §1, §2, §3

Experiment [3] has as its target T3, biotin-peptide SMEDYVNFNF (human).
T3 peptide: Biotin-SMEDYVNFNF
The experiment in a line: ELISA biotin-peptide; scFv 10 ug/mL; repI. How it is done:
as §1, §2, §3

The target in experiment [4] is T4, biotin-peptide MEDYVNFNFT (human).
T4 peptide: Biotin-MEDYVNFNFT
The experiment in a line: ELISA biotin-peptide; scFv 10 ug/mL; repI. How it is done: as §1, §2, §3

In experiment [5] the target is T1, biotin-peptide TSSMEDYVNF
The experiment in a line: ELISA biotin-peptide; scFv 2.5 ug/mL; repI. As to the method: as §1, §2, §3

The target in experiment [6] is T2, biotin-peptide SSMEDYVNFN
In words: ELISA biotin-peptide; scFv 2.5 ug/mL; repI. As to the method:
as §1, §2, §3

Experiment [7] concerns the target T3, biotin-peptide SMEDYVNFNF
The experiment in a line: ELISA biotin-peptide; scFv 2.5 ug/mL; repI. As to the method: as §1, §2, §3

The target of experiment [8] is T4, biotin-peptide MEDYVNFNFT
In words: ELISA biotin-peptide; scFv 2.5 ug/mL; repI. As to the method: as §1, §2, §3

Experiment [9] concerns the target T1, biotin-peptide TSSMEDYVNF
The experiment in a line: ELISA biotin-peptide; scFv 0.3125 ug/mL; repI. As to the method:
as §1, §2, §3

In experiment [10] the target is T2, biotin-peptide SSMEDYVNFN
The experiment in a line: ELISA biotin-peptide; scFv 0.3125 ug/mL; repI. As to the method: as §1, §2, §3

Experiment [11] deals with T3, biotin-peptide SMEDYVNFNF
The experiment in a line: ELISA biotin-peptide; scFv 0.3125 ug/mL; repI. How it is done: as §1, §2, §3

Experiment [12] concerns the target T4, biotin-peptide MEDYVNFNFT
In words: ELISA biotin-peptide; scFv 0.3125 ug/mL; repI. How it is done: as §1, §2, §3

The target of experiment [13] is T1, biotin-peptide TSSMEDYVNF
In words: ELISA biotin-peptide; scFv 0.625 ug/mL; repII. As to the method: as §1, §2, §3

Experiment [14] deals with T2, biotin-peptide SSMEDYVNFN
The experiment in a line: ELISA biotin-peptide; scFv 0.625 ug/mL; repII. As to the method: as §1, §2, §3

Experiment [15] addresses T3, biotin-peptide SMEDYVNFNF
The experiment in a line: ELISA biotin-peptide; scFv 0.625 ug/mL; repII. How it is done: as §1, §2, §3

Experiment [16] deals with T4, biotin-peptide MEDYVNFNFT
In words: ELISA biotin-peptide; scFv 0.625 ug/mL; repII. How it is done: as §1, §2, §3

For experiment [17], the target named is T1, biotin-peptide TSSMEDYVNF
In words: ELISA biotin-peptide; scFv 0.15625 ug/mL; repI. As to the method:
as §1, §2, §3

Experiment [18] has as its target T2, biotin-peptide SSMEDYVNFN
In words: ELISA biotin-peptide; scFv 0.15625 ug/mL; repI. How it is done:
as §1, §2, §3

The target of experiment [19] is T3, biotin-peptide SMEDYVNFNF
The experiment in a line: ELISA biotin-peptide; scFv 0.15625 ug/mL; repI. As to the method:
as §1, §2, §3

The target in experiment [20] is T4, biotin-peptide MEDYVNFNFT
In words: ELISA biotin-peptide; scFv 0.15625 ug/mL; repI. As to the method: as §1, §2, §3

Experiment [21] has as its target T5, Peptide 4, non-conjugated (SMEDYVNFNF-C) (human).
T5 construct: With the extra C-terminal Cys
T5 peptide: SMEDYVNFNFC
In words: ELISA; Ab 1 ug/mL; repI. How it is done:
(§4) In brief, plates with each non-conjugated peptide (50 μg/mL) or BSA-conjugated peptide (5 μg/mL) were coated in 0.58M carbonate-bicarbonate buffer pH9.5, 100 μL/well, at 4° C. […] After washing, wells were incubated with the 3, 3′,5,5′-Tetramethylbenzidine (TMB) HRP substrate and reactions were stopped with 2M HCl and OD450 was recorded.

Experiment [22] has as its target T6, BSA (negative control coating) (bovine, UniProt P02769 25-607).
T6 construct: also called Negative control BSA
In words: ELISA; Ab 1 ug/mL; repI. How it is done: as §4

Experiment [23] concerns the target T7, Peptide 1-BSA (MADDYGSEST-C conjugated to BSA) (human).
T7 peptide: MADDYGSESTC(BSA)
The experiment in a line: ELISA; Ab 1 ug/mL; repI. How it is done:
as §4

T6 sequence (P02769 25-607 limits assumed): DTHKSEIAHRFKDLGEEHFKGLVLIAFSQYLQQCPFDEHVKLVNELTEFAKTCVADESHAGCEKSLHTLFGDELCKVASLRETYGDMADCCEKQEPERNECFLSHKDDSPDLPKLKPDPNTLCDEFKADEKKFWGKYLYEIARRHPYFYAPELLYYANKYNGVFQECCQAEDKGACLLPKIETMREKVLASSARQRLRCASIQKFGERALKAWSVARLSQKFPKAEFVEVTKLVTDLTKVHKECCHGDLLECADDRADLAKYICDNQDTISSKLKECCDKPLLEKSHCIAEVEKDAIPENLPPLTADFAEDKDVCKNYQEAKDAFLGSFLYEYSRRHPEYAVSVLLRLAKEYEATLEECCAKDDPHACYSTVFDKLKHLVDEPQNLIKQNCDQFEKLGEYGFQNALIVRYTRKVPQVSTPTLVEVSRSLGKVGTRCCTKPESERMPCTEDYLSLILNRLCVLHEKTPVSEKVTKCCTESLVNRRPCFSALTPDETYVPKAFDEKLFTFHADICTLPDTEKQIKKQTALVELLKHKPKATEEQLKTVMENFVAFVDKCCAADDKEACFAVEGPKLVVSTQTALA

B1: CCR9_HUM2 scFv (humanized anti-CCR9 scFv, SEQ ID NO: 17 with C-terminal 6xHis tag) (scFv)
scFv: QVQLVQSGAEVKKPGASVKVSCTASGYSFTDYIIYWVKQAHGQSLEWMGYIDPNNYNTRYSQKFQGKVTITVDKSSTSAYMELNSLTSDDTAVYYCARDVYWGQGTTVTVSSGGGGSGGGGSGGGGSGGGGSDVVMTQTPLSLSVTPGQPASISCRSSQSLVHSNGKTYLQWYLQKPGQSPKLLIYKVSNRFSGVPDRFSGSGSGTDFTLKISRVEAEDVGVYFCAQSTHVWTFGGGTKVEIKRAHHHHHH
For the molecule B1, the OD450 was determined as 1.46 OD in [1]; 1.9 OD in [2]; 1.79 OD in [3]; 1.72 OD in experiment [4]; 1.42 OD in experiment [5]; 1.81 OD in [6]. Besides, the OD450 was 1.76 OD in [7]; 1.66 OD in experiment [8]; 0.46 OD in experiment [9]; 1.69 OD in experiment [10]; 1.63 OD in [11]; 1.47 OD in experiment [12]. In addition, the OD450 was 0.67 OD in experiment [13]; 1.74 OD in experiment [14]; 1.67 OD in experiment [15]; 1.46 OD in experiment [16]; 0.22 OD in experiment [17]; 1.64 OD in experiment [18]. In addition, the OD450 in [19] was 1.63 OD; in [20], 1.41 OD.

B2: anti-CCR9 antibody clone 115 (murine, from hybridoma #115) (antibody, V domains shown)
VH: QVQLKQSGPELVKPGTSVRVSCTASGYSFTDYIIYWVKQSHGRSLEWIGYIDPNNYNTRYSQKFKGKATLTVDKSSTSAFMHLNSLTSDDSAVYYCARDVYWGQGTTLTVSS
VL: DVVMTQTPLSLTVSLGDQASISCRSSQSLVHSNGKTYLQWYLQKPGQSPKLLIYKVSNRFSGVPDRFSGSGSGTDFTLKISRVEAEDLGVYFCAQSTHVWTFGGGTKLEIKR
notes: Mouse IgG1
On to B2, for which the OD450 amounted to 2.49 OD in experiment [21], 0.02 OD in experiment [22] and 0.04 OD in experiment [23].
